B1: Circadian locomoter output cycles protein kaput (Mus musculus), O08785 (parent)
chain: MVFTVSCSKMSSIVDRDDSSIFDGLVEEDDKDKAKRVSRNKSEKKRRDQFNVLIKELGSMLPGNARKMDKSTVLQKSIDFLRKHKETTAQSDASEIRQDWKPTFLSNEEFTQLMLEALDGFFLAIMTDGSIIYVSESVTSLLEHLPSDLVDQSIFNFIPEGEHSEVYKILSTHLLESDSLTPEYLKSKNQLEFCCHMLRGTIDPKEPSTYEYVRFIGNFKSLTSVSTSTHNGFEGTIQRTHRPSYEDRVCFVATVRLATPQFIKEMCTVEEPNEEFTSRHSLEWKFLFLDHRAPPIIGYLPFEVLGTSGYDYYHVDDLENLAKCHEHLMQYGKGKSCYYRFLTKGQQWIWLQTHYYITYHQWNSRPEFIVCTHTVVSYAEVRAERRRELGIEESLPETAADKSQDSGSDNRINTVSLKEALERFDHSPTPSASSRSSRKSSHTAVSDPSSTPTKIPTDTSTPPRQHLPAHEKMTQRRSSFSSQSINSQSVGPSLTQPAMSQAANLPIPQGMSQFQFSAQLGAMQHLKDQLEQRTRMIEANIHRQQEELRKIQEQLQMVHGQGLQMFLQQSNPGLNFGSVQLSSGNSNIQQLTPVNMQGQVVPANQVQSGHISTGQHMIQQQTLQSTSTQQSQQSVMSGHSQQTSLPSQTPSTLTAPLYNTMVISQPAAGSMVQIPSSMPQNSTQSATVTTFTQDRQIRFSQGQQLVTKLVTAPVACGAVMVPSTMLMGQVVTAYPTFATQQQQAQTLSVTQQQQQQQQQPPQQQQQQQQSSQEQQLPSVQQPAQAQLGQPPQQFLQTSRLLHGNPSTQLILSAAFPLQQSTFPPSHHQQHQPQQQQQLPRHRTDSLTDPSKVQPQ

Columns and labels:
Conditions in all cases: with Bmal1, Q9WTL8-4
Bmal1, Q9WTL8-4 [1] = variants of: B1
Bmal1, Q9WTL8-4 [2] = variants of: B1; remark: listed apart in the source
Bmal1, Q9WTL8-4 [3] = variants of: B1; remark: listed apart in the source

Bmal1, Q9WTL8-4, sequence (Q9WTL8 other isoform, or with tags, fused parts or gaps): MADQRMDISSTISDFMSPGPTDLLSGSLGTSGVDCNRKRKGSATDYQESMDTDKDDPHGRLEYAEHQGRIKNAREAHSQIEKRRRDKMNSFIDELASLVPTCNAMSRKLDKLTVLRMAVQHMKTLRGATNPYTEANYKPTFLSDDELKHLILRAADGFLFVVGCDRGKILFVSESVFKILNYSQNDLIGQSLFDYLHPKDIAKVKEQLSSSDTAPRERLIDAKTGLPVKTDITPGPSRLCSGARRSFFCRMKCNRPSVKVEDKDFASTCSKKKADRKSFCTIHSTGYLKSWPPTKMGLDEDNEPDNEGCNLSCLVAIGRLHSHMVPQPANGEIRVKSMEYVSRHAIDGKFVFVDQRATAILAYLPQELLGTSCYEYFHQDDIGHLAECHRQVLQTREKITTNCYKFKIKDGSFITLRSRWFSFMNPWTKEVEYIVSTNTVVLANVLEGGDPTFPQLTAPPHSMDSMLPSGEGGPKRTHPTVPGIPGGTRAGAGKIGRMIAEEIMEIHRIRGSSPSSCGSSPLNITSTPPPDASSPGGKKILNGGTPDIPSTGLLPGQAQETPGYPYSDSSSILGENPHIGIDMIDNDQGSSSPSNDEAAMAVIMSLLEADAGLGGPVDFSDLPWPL

Row | Variant | effect of a mutation on the interaction (Bmal1, Q9WTL8-4 [1]) | effect of a mutation on the interaction (Bmal1, Q9WTL8-4 [2]) | effect of a mutation on the interaction (Bmal1, Q9WTL8-4 [3])
1 | L57E | with no effect | decreasing interaction strength | –
2 | V315R | with no effect | decreasing interaction strength | –
3 | F122D | with no effect | – | –
4 | L74E | disrupting interaction strength | decreasing interaction strength | –
5 | W284A | disrupting interaction strength | – | decreasing interaction strength
6 | L57E;L113E;W284A | disrupting interaction strength | disrupting interaction strength | –
7 | L113E | with no effect | – | –
